The assay addresses Neuregulin-1 receptors (ErbB3 or ErbB4) on MCF-7 human breast cancer cells. Nature of the assay: cell-based or functional assay.

B1: recombinant human Neuregulin-1 (rhNRG-1) (ligand)
chain: SHLVKCAEKEKTFCVNGGECFMVKDLSNPSRYLCKCPNEFTGDRCQNYVMASFYKAEELYQ
B1 showed a Biological activity; ErbB2 phosphorylation ELISA on MCF-7 cell lysates; Reference Sample (0 g/L HSA) of 1500 U, a Biological activity; ErbB2 phosphorylation ELISA on MCF-7 cell lysates; Sample A (0.5 g/L HSA) of 1730 U, a Biological activity; ErbB2 phosphorylation ELISA on MCF-7 cell lysates; Sample B (2 g/L HSA) of 3500 U and a Biological activity; ErbB2 phosphorylation ELISA on MCF-7 cell lysates; Sample C (8 g/L HSA) of 4000 U. The EC50 value; ErbB2 phosphorylation ELISA on MCF-7 cell lysates; Reference Sample (0 g/L HSA) is 0.0505, the EC50 value; ErbB2 phosphorylation ELISA on MCF-7 cell lysates; Sample A (0.5 g/L HSA) is 0.0439, the EC50 value; ErbB2 phosphorylation ELISA on MCF-7 cell lysates; Sample B (2 g/L HSA) amounted to 0.0217 and the EC50 value; ErbB2 phosphorylation ELISA on MCF-7 cell lysates; Sample C (8 g/L HSA) was found to be 0.0189. Also, the OD50 value; ErbB2 phosphorylation ELISA on MCF-7 cell lysates; Reference Sample (0 g/L HSA) came to 0.391 OD, the OD50 value; ErbB2 phosphorylation ELISA on MCF-7 cell lysates; Sample A (0.5 g/L HSA) was determined as 0.393 OD, the OD50 value; ErbB2 phosphorylation ELISA on MCF-7 cell lysates; Sample B (2 g/L HSA) came out at 0.406 OD and the OD50 value; ErbB2 phosphorylation ELISA on MCF-7 cell lysates; Sample C (8 g/L HSA) was found to be 0.424 OD. For the same molecule, the Standard sample EC50/sample EC50; ErbB2 phosphorylation ELISA on MCF-7 cell lysates; Sample A (0.5 g/L HSA) against Reference Sample turned out to be 1.15, the Standard sample EC50/sample EC50; ErbB2 phosphorylation ELISA on MCF-7 cell lysates; Sample B (2 g/L HSA) against Reference Sample was 2.33, the Standard sample EC50/sample EC50; ErbB2 phosphorylation ELISA on MCF-7 cell lysates; Sample C (8 g/L HSA) against Reference Sample came to 2.67 and the specific activity; ErbB2 phosphorylation ELISA on MCF-7 cell lysates; Reference Sample (0 g/L HSA) came out at 6000 U/mg. The specific activity; ErbB2 phosphorylation ELISA on MCF-7 cell lysates; Sample A (0.5 g/L HSA) turned out to be 6900 U/mg, the specific activity; ErbB2 phosphorylation ELISA on MCF-7 cell lysates; Sample B (2 g/L HSA) is 14000 U/mg and the specific activity; ErbB2 phosphorylation ELISA on MCF-7 cell lysates; Sample C (8 g/L HSA) came out at 16000 U/mg.

The record behind these values is patent publication US20170007671A1.
